Experiment: soluble fraction after stress (log2 fold change); higher = more stays soluble; pooled small domains, quantitative proteomics
Conditions: stress: 75 degC
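Also: 20 min heating vs room temperature control held 20 min.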

Sequence	soluble fraction (log2)
HMGVQKGKDNALAVQQWIAERDATGDFGEYERRGIINRSALFDELGIPRSSMGSNDQIRQMIEAADVRWF	-0.47
HMGVREIIVQFLEQFDKPKSVQEIVEYVLRYRNTTENSIRSTMYSGSQFRQFDNGYFGLSDKSYPNEYIYA	-1.49
HMGVRLAPEVDRIPYGQMHPNLKKVKDLYEASYKAYVQALSSGNQALAKEKLEEFQSTKARYQRALSAYT	0.305
HMGVRVEVDAVTPPGAMASGSVVFSDGESKKWSVDQFGRLAMTGGAPDYKPSDQDVMEFQQQLEQSL	0.125
HMGVSAGQVRGLIRNLIAGEDKSKPLSDLALERELEKREIRISRRTVAKYRAELGIPNSDQRRYLP	-1.68
HMGVSLKEIQENLSLIDDAAQKLASGQGTVDDAVGMGNAGKDIYDNIEGYVSSPKEFINGVLSSV	-0.0252
HMGVSVNVQPAILDWAMQKAQMGNAGSSVIEMIAKWISGEKAPTFNQIEDVSKKISIPFGFFFLKEPPIE	-2.05
HMGVTGYPNPTREHITWDDARRIEVWNAYGVPVADLRFARGVLDVAGWPVGTYVARIDGGRSVRFVVI	-1.05
HMGVTVDEVHRNFESGMNVVHKKFGAGVVDSFDEGKIRINFDGVIKVFIADVLINSGMLESVSYTH	-0.832
HMGWEDLVGKTAVVKVALAPVGMVFFRGEFWSAISETGRIEPGEEVTISRIDGLKLYVTKKRIM	-3.89
HMGWEPTPVLVAARDISGGTVLDQDMLRVEAIPSRLVTPSIVRSDLLASVQDAKLLLPMKQGDLLNFNMLQ	-0.0591
HMGWVMLVIMSRGASEAQINAVVEKIRAAGLTEHLSKGIERTIIGAIGEERKLEPEVFELLPGVEQALHIV	-2.2
HMGYDSYDADTIPKLKIGSIVEHPKFGEGSIISKAGAEVTIAFKIKGVKKINLEYTSIKVLK	-1.67
HMGYGEQEQEAQKYLALHALMSQDPTLAKMYQAPNQYKLMSHVMEQNGIKNVNDYLTDPQQLP	-0.157
HMGYKDIDKLSGVDLAIYRFIVEHDEQIPYMRVRELARGAHVSNSSVMRFIRKIGYDSFPEFKVSLRS	-0.0854
HMGYPGLGSIGSKPLGDLLFQSKLFVKTKREFAEFKMANNNIVWGRRTQYLVRNYPLSVMEVFL	-0.0522
HMHAGQIISQKIKESGISISHVAKHLKVQRATLYNLFEREVWPAHRLRTIEALLHIDLSDLYP	-2.61
HMHANAALTPRQRLRLAQKIVDEEWTVAAAADYFRVSWPTAAKWARRYVELGEAGMADRSSRP	-2.55
HMHDEKHHQLANEIARKWAALRGNRDFAAADELKNLAAEAGVELQATKQAVGQGALAKLKENFDPVKLEAL	0.192
HMHDLDALTGLSGEARSKVYEEGSVFVAGEMWSAKSDAVIPAGSSIRVVRREGFILVVEKDS	-2.48
HMHDYTTIIGVIELRLNKISYDNVQKRYRIGRSGISLIMERYRDSGLSLDDLKQMPAEKVVNLIYPKD	-2.88
HMHDYYDSIDAVTHDKSYESNLVFALKLGYTETQLQKALLKLGKKAREDQILEELIRIQKSSKA	-0.362
HMHEGNWTLPNPMPIGTTLTLPEHSRLYISNLAGQRVFETSATSVEIPLLPKGTYLLRLETMNGHTTRKIL	-0.106
HMHELKIEKVAEAPNGAMRLLLSDGSEWVLGVKSWNRLNLSLEKILDVNVLRALEKESQYHLLRTKALEL	-1.39
HMHFIMEYRIRAYVDELFESAPRTQRAYELKIELTQNLIDKYYALVSEGKSEQDAYNLTVMSIGDVREL	-3.01
HMHGEAVVVPNVKGLPMRQAENEIYKQSLKAVAIDSSYVKGMPPGAILEQNPAGGSKVKKGRTVYLTINMD	-0.268

Sequence	soluble fraction (log2)
HMHGERVVTAGQTVRVVFTSNGLQVSSEGKALAAGAVGDDIQVRAASGKVIRGTVTGPGVVQV	0.233
HMHGLNQNKPIPIADIVNSVNNYLTSLGKKTITDNSVLSNLKKAAKYLNTAYNLVLRPDSLNMTVTLL	0.323
HMHIMINPDQLSPEQIQSIRTWAEEGLDLNAIQKRLHEDLNIKLTFMDTRFLLQDLDIRIRQPEPEPEAEQ	-0.208
HMHINLEGLKKIDFRKKIGFLFGSEASGLSNKEVSYANYTLQIPTNINFKSLNLSHSLIIIAQFISSLLNS	-0.55
HMHKIRRQTKITKSLLDQIEGIGSSRKKALLNHFGSAKAVGEAGETDLGTVKGISNSLAKKIYDFFHAT	-0.545
HMHLDIGQLVQRILADIQVGKLADGQRKLPAEPVLMERYQVTRYTLRQALKQLSNMGYTYQMHGIGTFVRQ	-1.79
HMHLKDEHGLTPKQRAFADEYVITLNATVSYKKIYSVKRDSVASTNGSRLLGNANVKAYIDKRLEE	-2.26
HMHLKRQEAINLGAYLLGAELRIHRLSLEELGSERIDEMLAAINYKTLDDLLADIGLGNRPARFVARQLG	-1.86
HMHLLGASIAAYRKKAGMTQEDLGRALFVSGQAVSRWERGGTPDSDMLPKIADVLGISLDTLFGRS	-1.57
HMHLRYTYIYDNENRVTSKEASKWDSTQEAWVPYFKMNVSYVNNEVELSYARWNSKSNAYDSSIKKTI	-2.54
HMHLTNIPKGFTPSFDTKQWIVEEFGERYNYDNELKIFINHYRASGTTKSDWQYAFRSWLLRAKKFT	-2.83
HMHLTRYLHTMIRAANLDDTLDFFVEKLGLIEAYRYSNEAGRFTLVFLSAPDDLESAQSRQAPLVEITYN	-1.32
HMHLYDMYNLTEKEISIIRLIANGLNNKEISQELFLSEGTIKNNITNILAKLELRDRTQLAIFAFKNKIVI	-3.6
HMHMELHEKIRLARELNKWSQEEVAEKLEMSPSGYAKIERGETALNIPRLEQIAEIFNIDIWELVKA	-1.04
HMHMHTADDFKQLAKHTSNGRLRTRYLALYHFKKGETRTQIAAYLGVARGSVNTWVSNYLAYGLEGLQS	-2.53
HMHMIDDYLARIGQLIRDARQHRGWTQVQLAEALGTSQSAVNRIERGNQNISLEMIARIGEALGSEIVSLG	-2.24
HMHMKTIEWDSLVLIMYKDMKYLKRINEGQSFHGKGGMLNYADLIGKTYGIRFGQYEIFEPSLEDIVMYG	-0.0889
HMHMSKKLADSISALRKKNGLSQEQLAEKIGISRQTVSNWERGIATPDVETLNLISKLFDEDLSVMING	-0.073
HMHNISQTGRRIAGMTQERWAEALDISVESVRLYESGRGMPSDDVATRMVEVSGAPVLGYWH	-0.458
HMHNPSYDMSKDVDILVMKFRDYNNLTDDEARFLLDKAKDAYYNTGKEILSDNEYDTLEKSLGQE	-0.000671
HMHPEPDPVLFIDGKEYPYDKLSELDETRVQSMTILPKKSAVKKYGDKYANRSIMEITLKKEN	0.119
HMHPNPLTEQEIAVLKGIAQGLSNQEIADQLYLSNGTVRNYVTNILSKLDAGNRTEAANIAKESGW	0.00139
HMHPSNQELTKVLAQGSELVLAQKYIEASQIFTRVIEIDQTWAEAWNKRATVFYLLQNYEASQKDIDEV	0.0525
HMHQKELLNLSYKEAKRYILDDFERVFFTNLLRKTGGNVSRAAQLAQVHRKNLYVKLTELGIDPRQFG	-1.53
HMHQLQLDSRSRLHMTGVIEVESFDEATIVLTTTRGTLIVRGENLHLQLLRLDGGEVLVDGTVDSLSYE	-2.67
HMHQPPDLDDFEAFVGRVKPALLQALVATYGPVDGREATVDALSWAWEHWDRLADVDHPVGYLYRV	-0.0172

Sequence	soluble fraction (log2)
HMHRFAVLDTVREVAAGGVAATLSIGVGRDADSFDALFKNASMALEMALSRGGDQAVVKDRMNFQFYGG	0.153
HMHRGEIVDGVIASVNPRSILIDIGGKSDALVHPRELERMSDEDLRSLKPGQDVSVYVIETDSDGTMLVSL	0.0809
HMHSEISGGSKDPFRFMPHLGVEDIHAETDRLSGSGVEFIREPDQESWGGWVATFKDPDGNILQLLQL	0.197
HMHSQVFTDPDKAKNAVVKLGAPLVVKADGLALGKGVIIAQNPQAAKEAVASVGSSGISSISVT	0.126
HMHTDDDGITEAFPHLRLLSLGEDILDLLEKSRFIRKLNNELVYYVVDFREQNSIDGRRYHPSIYHNL	-0.437
HMHTGEVVNGKVIDVKEDQIILNVGFKSDGIITRSEYSNDNSLDLRTVVNVGDDMEAKVLKINDGEGQVLL	-0.242
HMHTGLAELTDRERDVLRLIATGMTNAAIGSALAYSPSTIRADTVSIYRKLEVRGRAEAAAVAVAAGLTQP	-1.72
HMHTPSGALLSAIEKEWGSFDNFKKEFTTAATSLFGSGWVWLAKDKKGKLYILSENNAGNPITKGYTPILG	-0.359
HMHVLNEEYYNRIKAIQFTMNHDDGNSLNDIEKSDIILLGVSRTSKTPTSIYLANRGLRTSNIPLINEK	-0.655
HMHVSLADQAYKTIRTNILNLTYPPGTQLTEAKLASDLNMSRSPVRTAIKMLQADGLLVSDYYKSMTVK	-1.21
HMHVYSYPAAVKIKNAVGREMMVTLLGRSGTHVQFARQDGEEFVYPISSLDLAAQTLISKYPNDGIKN	-0.895
HMIAALEGKQAMVLDQVSLHHGQVKLGGEVWTARPLNDQDVYEPGDRVTVMRIDGATAVVWRN	-0.472
HMIAASPVGGIDRVLELLDARGQRVAWIEASGTEGGQRLRLGWIDAQGAERHGAWVPWSADDLLLYA	-0.739
HMIAASQVLRDARQRSRLTQAELGRRADVPQSVISAYESARREPSVDMLARLVAAAGFDLRIGLTP	-0.755
HMIADPLVINKLMDSMALAINDYNPDSVEPVLDELRQYFSENQLRELSKAMDDFDFDEALNALTLLRT	-0.185
HMIALKNLREEKRMTQAELSKDLEISPSAIGMYEQGRRVPDVSTLKKISAYFNVSIDYLLGNSTSKDI	-0.626
HMIALLRLGTAPDIKAQAPLATILARHNGEMSAKDLWQRFGGEIDTFYAQLKTEVAHGWILEPT	-2.34
HMIAVLKQGVSKQQVENLITWFRSRGLDVHISEGKFQTIIGLIGDTSKVDIDLLNGLEIIESVKRI	-0.344
HMIAVSQEQIKQIIVDDPSFHDANGKFSQALLTQYLNQRRMSEDQFVEEIRDQFLFQNLQNLVQNG	0.278
HMIDAAHLEKAILSLPEGARAVFVLIETEGFAHREVAELLGISEGTSKSQLNYAKKRLREILV	-0.266
HMIDAKTTLQELTQKSGKKPEYRLIKIEGPDHLRRFTVEVFIDGQSMGTGTGHSKKEAEQNAANFALKNLQ	-0.00455
HMIDEQDLKKYILISTSVEELTDYLGATDRMLYDYLYSLKHVGQYWQLNERFLLDLYKLPNLVIVDKEDLE	-0.172
HMIDFDEQGNLWVHEMGPRHGDELNLIEKARNYGYPTVSQGDHYSGVKISNHEDIPIFKSPEKAWVPAISP	-0.228
HMIDFDHADIERLWNSIIHYVPERQKLDFAIDFIKSLEDIGVEHDVLRGSAELDPKLEEAVNTVFE	-0.725

Reference: the domain aggregation screens of Martell et al. (2025)
